Data reported in US20230009582A1 (MEMO THERAPEUTICS, published 2023).

T1: Siglec-5-Fc (R&D systems) (UniProt O15389 17-434, limits assumed)
T1 construct: Bought reagent; not shown: Fc part of the bought fusion; not described
T1 sequence (looked up): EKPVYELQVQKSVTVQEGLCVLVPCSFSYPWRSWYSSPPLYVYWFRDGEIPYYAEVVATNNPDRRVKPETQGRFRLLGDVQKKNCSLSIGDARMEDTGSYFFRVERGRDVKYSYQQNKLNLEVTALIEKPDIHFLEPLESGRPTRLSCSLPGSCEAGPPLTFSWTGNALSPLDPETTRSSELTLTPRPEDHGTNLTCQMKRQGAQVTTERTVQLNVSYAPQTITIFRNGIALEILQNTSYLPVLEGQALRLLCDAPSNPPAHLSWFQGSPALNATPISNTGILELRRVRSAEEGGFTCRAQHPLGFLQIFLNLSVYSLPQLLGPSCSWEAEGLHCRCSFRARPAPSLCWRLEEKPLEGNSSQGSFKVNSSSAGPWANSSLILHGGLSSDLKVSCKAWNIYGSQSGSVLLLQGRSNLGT

T2: Siglec-15-Fc (R&D systems) (UniProt Q6ZMC9 20-263, limits assumed)
T2 construct: Bought reagent; not shown: Fc part of the bought fusion; not described
T2 sequence (looked up): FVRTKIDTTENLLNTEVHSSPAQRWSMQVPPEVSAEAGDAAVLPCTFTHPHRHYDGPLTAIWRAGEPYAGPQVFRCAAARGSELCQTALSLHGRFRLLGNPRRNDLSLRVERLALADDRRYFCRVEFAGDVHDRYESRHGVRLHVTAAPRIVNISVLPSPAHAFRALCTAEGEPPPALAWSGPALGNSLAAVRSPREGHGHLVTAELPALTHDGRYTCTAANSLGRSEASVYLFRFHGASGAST


Columns and labels:
[1] = target: T3, Siglec-9 expressed on cells (human, UniProt Q9Y336 18-463); assay: flow cytometry on human CD14+ monocytes in PBMC
T3 construct: also called monocyte-expressed Siglec-9
T3 sequence (Q9Y336 18-463 limits assumed): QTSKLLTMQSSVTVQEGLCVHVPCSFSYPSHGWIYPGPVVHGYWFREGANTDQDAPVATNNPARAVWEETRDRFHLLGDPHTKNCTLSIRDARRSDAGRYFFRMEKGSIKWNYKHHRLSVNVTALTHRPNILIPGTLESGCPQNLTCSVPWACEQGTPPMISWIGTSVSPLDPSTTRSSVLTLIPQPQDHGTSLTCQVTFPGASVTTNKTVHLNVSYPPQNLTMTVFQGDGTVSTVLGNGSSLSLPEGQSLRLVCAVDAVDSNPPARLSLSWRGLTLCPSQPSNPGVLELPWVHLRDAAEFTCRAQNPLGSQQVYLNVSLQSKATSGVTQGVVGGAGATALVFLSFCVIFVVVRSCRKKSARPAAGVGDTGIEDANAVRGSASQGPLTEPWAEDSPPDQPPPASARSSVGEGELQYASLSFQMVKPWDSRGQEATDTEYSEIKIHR
Experimental: (§1) Human ex vivo PBMC were stained with fluorescence-labeled (allophycocyanin, APC) antibody to the monocyte marker CD14 (Biolegend) in assay buffer (0.5% (v/v) heat-inactivated fetal bovine serum (Gibco), 2 mM EDTA in phosphate-buffered saline). Subsequently, cells were incubated with antibodies under evaluation at various concentrations (67 nM-0.38 pM). After a washing step cells were incubated with fluorescence-labeled (Brilliant Violet 421™) secondary antibody against human IgG (mAbA) or rabbit IgG (all other monoclonal antibodies under evaluation; both secondary antibodies from Biolegend).
(§2) Binding of Siglec-9-specific antibodies to monocytes (CD14-positive life cells) was analysed with a CytoFLEX flow cytometer (Beckham Coulter's). The mean fluorescence intensity of the secondary antibody staining in the CD14-positive population at each dilution was determined using Flow Jo software (BD). Datapoints generated by this analysis were fitted and EC50 values were determined by three-parameter analysis in GraphPad Prism (GraphPad Software)

[2] = target: T4, Siglec-9 protein (construct not stated; antigen of Examples 3 and 4) (human, UniProt Q9Y336 18-348, limits assumed); assay: SPR (Carterra LSA), antibody coupled to HC2000M chip, antigen in solution
T4 sequence (Q9Y336 18-348 limits assumed): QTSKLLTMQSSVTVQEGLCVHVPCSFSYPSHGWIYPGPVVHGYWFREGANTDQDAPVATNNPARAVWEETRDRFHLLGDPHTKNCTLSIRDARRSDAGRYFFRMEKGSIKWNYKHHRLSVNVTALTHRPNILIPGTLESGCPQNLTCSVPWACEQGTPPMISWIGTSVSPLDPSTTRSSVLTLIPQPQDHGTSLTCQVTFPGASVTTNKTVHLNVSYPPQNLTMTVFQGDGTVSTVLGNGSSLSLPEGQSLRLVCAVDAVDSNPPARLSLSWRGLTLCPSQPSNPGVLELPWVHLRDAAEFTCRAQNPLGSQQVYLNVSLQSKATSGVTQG
Experimental: (§3) KD determination was performed by SPR by individually coating the antibodies to HC2000M chips via sulpho-NHS/EDC coupling chemistry. Chips were afterwards blocked with ethanolamine. Antigen was applied in one of the three different concentrations (20 nM, 100 nM and 500 nM) with a contact time of 240 s, followed by a dissociation phase of 120 s. After each antigen incubation, the bound antigen was removed from the antibodies with 10 mM glycine at pH 2.0. All kinetic parameters (kₒₙ, koff and KD) were determined using a kinetic fitting program (LSA Kinetics, Carterra).

[3] = target: T4, Siglec-9 protein (construct not stated; …); assay: SPR (Carterra LSA), antibody coupled to HC2000M chip, antigen at 20, 100 and 500 nM
Experimental: as §3

[4] = target: T5, Siglec-9-Fc (in-house production); assay: ELISA, coated Siglec-9-Fc 1 µg/ml, antibody at 5 µg/ml (33 nM), Abs 450 nm, n=3
T5 construct: The entry holds the Siglec-9 part and the Fc together; also called Siglec-9-Fc protein
T5 sequence (chain, as listed by the source limits assumed): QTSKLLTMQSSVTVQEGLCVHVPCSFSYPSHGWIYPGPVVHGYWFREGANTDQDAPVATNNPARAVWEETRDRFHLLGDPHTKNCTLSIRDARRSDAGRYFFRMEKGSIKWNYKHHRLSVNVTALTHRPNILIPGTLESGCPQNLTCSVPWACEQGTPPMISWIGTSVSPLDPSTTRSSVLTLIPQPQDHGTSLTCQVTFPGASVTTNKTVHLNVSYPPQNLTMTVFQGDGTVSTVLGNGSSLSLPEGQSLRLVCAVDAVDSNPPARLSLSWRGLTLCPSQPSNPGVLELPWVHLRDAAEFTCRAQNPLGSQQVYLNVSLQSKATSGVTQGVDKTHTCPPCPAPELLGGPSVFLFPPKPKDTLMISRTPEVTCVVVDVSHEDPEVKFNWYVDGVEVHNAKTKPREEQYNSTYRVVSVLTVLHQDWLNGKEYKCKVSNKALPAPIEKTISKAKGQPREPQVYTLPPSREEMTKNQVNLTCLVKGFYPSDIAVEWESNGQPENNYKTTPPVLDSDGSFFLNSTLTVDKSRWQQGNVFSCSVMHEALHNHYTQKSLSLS
Experimental: (§4) Specificity towards Siglec-5, Siglec-7, Siglec-8, Siglec-15 and Siglec-9 was assayed in enzyme-linked immunosorbent assay (ELISA) using 96 well half-area ELISA plates (Corning). Siglec-5-Fc (R&D systems), Siglec-7-Fc (in-house production, Siglec-7-Fc protein used had the following amino acid sequence:
(§5) (SEQ ID NO: 59)) […] […] […] […] […] […] […] […] […] […] […] […], Siglec-8-Fc (R&D systems), Siglec-15- Fc (R&D systems) and Siglec-9-Fc (in-house production, SEQ ID NO: 11) were coated at 1 μg/ml in 50 mM carbonate-bicarbonate buffer pH 9.6 for 15-20 hours at 4° C.
(§6) Antigens were washed away (Tecan Hydrospeed) and plates were blocked with 5% skimmed milk in phosphate-buffered saline (PBS). After washing the plates, antibodies were added at 5 μg/ml (33 nM) in 0.5% milk PBS in triplicates. Plates with antibodies were incubated for 1 hour at room temperature. Plates were washed and bound antibodies were detected by horseradish peroxidase (HRP)-labeled polyclonal anti-rabbit IgG antibody (Biolegend) or anti-human Fab fragment for mAbA (Sigma Aldrich). 3,3′,5,5′-Tetramethylbenzidine (TMB; Sigma Aldrich) development was stopped by addition of sulfuric acid and absorbance was detected at 450 nm (Tecan, CM […] MONO 200).

[5] = target: T1, Siglec-5-Fc (R&D systems); assay: ELISA, coated Siglec-5-Fc 1 µg/ml, single antibody concentration, Abs 450 nm, n=3
Experimental: as §4, §5, §6

[6] = target: T6, Siglec-7-Fc (in-house production); assay: ELISA, coated Siglec-7-Fc 1 µg/ml, single antibody concentration, Abs 450 nm, n=3
T6 construct: The entry holds the Siglec-7 part and the Fc together; also called Siglec-7-Fc protein
T6 sequence (chain, as listed by the source limits assumed): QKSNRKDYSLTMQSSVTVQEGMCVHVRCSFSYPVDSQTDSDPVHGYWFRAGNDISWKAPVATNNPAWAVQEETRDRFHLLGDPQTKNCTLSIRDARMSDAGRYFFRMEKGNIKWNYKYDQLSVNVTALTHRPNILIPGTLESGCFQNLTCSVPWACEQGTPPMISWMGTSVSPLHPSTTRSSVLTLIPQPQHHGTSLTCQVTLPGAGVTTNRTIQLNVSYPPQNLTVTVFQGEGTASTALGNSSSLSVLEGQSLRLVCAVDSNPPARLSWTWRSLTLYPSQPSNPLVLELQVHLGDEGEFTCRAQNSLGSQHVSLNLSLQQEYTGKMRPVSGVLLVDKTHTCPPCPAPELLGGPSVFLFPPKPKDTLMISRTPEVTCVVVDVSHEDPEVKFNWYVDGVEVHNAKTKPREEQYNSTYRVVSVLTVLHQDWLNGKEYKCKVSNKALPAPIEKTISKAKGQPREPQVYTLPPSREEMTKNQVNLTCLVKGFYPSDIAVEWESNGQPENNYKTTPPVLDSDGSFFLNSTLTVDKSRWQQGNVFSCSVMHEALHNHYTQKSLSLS
Experimental: as §4, §5, §6

[7] = target: T7, Siglec-8-Fc (R&D systems) (UniProt Q9NYZ4 17-363, limits assumed); assay: ELISA, coated Siglec-8-Fc 1 µg/ml, single antibody concentration, Abs 450 nm, n=3
T7 construct: Bought reagent; not shown: Fc part of the bought fusion; not described
T7 sequence (Q9NYZ4 17-363 limits assumed): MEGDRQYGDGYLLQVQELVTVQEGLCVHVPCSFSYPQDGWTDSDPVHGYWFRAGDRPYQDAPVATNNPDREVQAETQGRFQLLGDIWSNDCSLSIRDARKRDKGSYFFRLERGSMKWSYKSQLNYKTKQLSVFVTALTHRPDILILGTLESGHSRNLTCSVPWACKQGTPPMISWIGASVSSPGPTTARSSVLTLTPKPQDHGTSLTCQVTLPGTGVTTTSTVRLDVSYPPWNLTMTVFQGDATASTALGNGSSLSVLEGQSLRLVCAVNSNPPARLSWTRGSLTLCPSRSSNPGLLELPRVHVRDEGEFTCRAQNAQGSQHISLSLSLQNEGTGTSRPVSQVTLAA
Experimental: as §4, §5, §6

[8] = target: T2, Siglec-15-Fc (R&D systems); assay: ELISA, coated Siglec-15-Fc 1 µg/ml, single antibody concentration, Abs 450 nm, n=3
Experimental: as §4, §5, §6

[9] = target: T4, Siglec-9 protein (construct not stated; …); assay: ELISA, coated Siglec-9 1 µg/ml, antibody titrated, Abs 450 nm, three-parameter fit, n=3
Experimental: FIG. 2: Binding curves of monoclonal antibodies (68D4 and 224B1; comparative monoclonal antibodies mAbA and 5C6 & negative control 53C3) towards Siglec-9 as analysed by ELISA. Binding of the monoclonal antibody to Siglec-9, as determined by measurement of the accumulated coloured product at 450 nm after stopping the reaction, is plotted against the concentration of the monoclonal antibody under evaluation.
Antibody binding affinity towards Siglec-9 was measured by a dilution series of the analysed antibodies on a fixed concentration of Siglec-9 protein in ELISA. To this end, Siglec-9 was coated at 1 μg/ml in 50 mM carbonate-bicarbonate buffer pH 9.6 for 15-20 hours at 4° C. Antigen solution was washed away (Tecan Hydrospeed) and plates were blocked with 5% skimmed milk in phosphate-buffered saline (PBS) for 1 hour at room temperature. Plates were washed and antibodies were added at concentrations of 0-420 nM. After incubation at room temperature for 1 hour plates were washed once more. Bound antibodies were detected by addition of horseradish peroxidase (HRP)-coupled secondary antibodies. Rabbit antibodies were detected by polyclonal anti-rabbit IgG antibody (Biolegend), mAbA by anti-human Fab fragment (Sigma Aldrich). After a last washing step, plates were developed by the addition of 3,3′,5,5′-Tetramethylbenzidine (TMB; Sigma Aldrich). Reaction was stopped by addition of sulfuric acid. Absorbance was detected at 450 nm (Tecan, CM […] MONO 200). Data were fitted and EC50 values were determined by three-parameter analysis in GraphPad Prism (GraphPad Software)

[10] = target: T3, Siglec-9 expressed on cells; assay: flow cytometry on human CD14+ monocytes (PBMC), mean RFU of the secondary antibody, three-parameter fit
Experimental: as §1, §2

[11] = target: T5, Siglec-9-Fc (in-house production); assay: blocking assay: Calcein-AM labelled sialic acid-displaying A549 tumour cells binding to plate-captured Siglec-9-Fc, antibody titrated, n=3
Experimental: FIG. 4: Titration of monoclonal antibodies (68D4 and 224B1; comparative monoclonal antibodies mAbA and 5C6 & negative control 53C3) to determine blocking the binding of sialic acid-displaying A549 tumour cells to Siglec-9. Tumour cells were fluorescently-loaded with Calcein-AM in advance to the binding experiment and binding was determined by the released fluorescence upon cell lysis. Fluorescence released in the absence of antibody was set to 100% binding. Data was fitted by three-parameter analysis in GraphPad Prism (GraphPad Software); n=3.
To analyse if anti-Siglec-9 antibodies recognize the ligand-binding domain and block the binding of Siglec-9 to its ligands, sialic acids, we performed a cell-based assay where the binding of sialic-acid expressing A549 tumour cells to Siglec-9-Fc is evaluated in ELISA. ELISA-plates were coated with 3 μg/ml Protein-A (Thermo Fisher Scientific) overnight at 4° C. Plates were blocked with PBS, 1% BSA for 1 h, and incubated with 5 μg/ml Siglec-9-Fc for 1 h at RT. Anti-Siglec-9 antibodies at different concentrations (starting at 8 μg/ml or 53 nM); were mixed 1:1 with Calcein-AM (Thermo Fisher Scientific) labeled A549 tumour cells. The mixture was added to the ELISA plate and incubated for 1 h at 4° C. After washing of the plate, cells that were bound to the plate were lysed with PBS, 1% Triton-X 100 and released fluorescence was measured at an excitation of 485 nm and emission of 535 nm with a Synergy H1 (BioTek). Data were fitted by three-parameter analysis in GraphPad Prism (GraphPad Software).

[12] = target: extra-cellular domain of Siglec-9 fused to a C-terminal his-tag (Homo sapiens (Human), UniProt Q9Y336 18-348); assay: ELISA, coated his-tagged Siglec-9 extracellular domain, anti-human Fc gamma detection, Abs 450 nm
extra-cellular domain of Siglec-9 fused to a C-terminal his-tag, sequence (Q9Y336 18-348 limits assumed): as the sequence (Q9Y336 18-348 limits assumed) above
Excerpt: (SEQ ID NO: 44) […] […] […] […] […] […] […]. For detection of bound IgG either polyclonal anti- rabbit IgG antibody (68D4; Biolegend, #406401), or anti-human Fey fragment (humanized 68D4 and mAbA; Jackson Immuno Research laboratories, #109-035-098) were used.

Row | fold stronger avidity than mAbA [1] [fold] | fold stronger binding than 5C6 [1] [fold] | fold better dissociation constant than mAbA [2] [fold] | Kd [3] [nM] | koff [3] [s⁻¹] | kon [3] [M⁻¹ s⁻¹] | binding result [4] | binding result [5] | binding result [6] | binding result [7] | binding result [8] | EC50 [9] [nM] | EC50 [10] [nM] | binding result [11] | EC50 (read off the curve) [12] [pM] | Binder
1 | ~3 | ~22 | ~16.7 | 0.15 | 9.6e-05 | 640000 | binds | no binding (tested: 5 µg/ml) | no binding (tested: 5 µg/ml) | no binding (tested: 5 µg/ml) | no binding (tested: 5 µg/ml) | 0.05 | 0.19 |  |  | monoclonal antibody 68D4 (rabbit) (antibody, V domains shown, also called rb 68D4; rabbit 68D4) VH: QSLEESGGRLVKPDETLTITCTVSGIDLSSYDMTWVRQAPGKGLEWIGIIYTGGLTYYASWAKGRFTISKTSTTVDLKITSPTTEDTATYFCAREVGDNNNFWGPGTLVTVSS VL: DVVMTQTPASVSEPVGGTVTIKCQASESVDSGLAWYHQKPGQPPKLLIYDDTDLASGVPSRFKGSRSGTAHTLTISDLECADAATYYCQYTDYGRTYVGTFGGGTEVVIKG
2 |  |  |  |  |  |  |  | no binding (tested: 5 µg/ml) | no binding (tested: 5 µg/ml) | no binding (tested: 5 µg/ml) | no binding (tested: 5 µg/ml) | 0.34 | 4.18 | binds |  | comparative monoclonal antibody 5C6 (WO 2017/075432), mouse-rabbit chimera (antibody, V domains shown) VH: EVQLQQSGPELVKPGASVRISCKASGYTFTDYNIHWVKQSQGKSLEWIGYIYPYNGDTGYNQKFQNKATLTVDNSSSTAYMELRSLTSEDSAVYYCANGNYLYYYAMDYWGQGTSVTVSS VL: DVVMTQTPLSLPVSLGDQVSISCSSSQSLVHSNGNTYLHWYLQKSGQSPKLLIYKVSNRFSGVPDRFRGSGSGTDFTLKISRVEAEDLGVYFCSQNTHVPLTFGAGTKLELKG
3 |  |  |  |  |  |  |  |  |  |  |  |  |  |  | ~60 | humanized anti-Siglec-9 antibody 68D4 (68D4-hum) (antibody, human IgG1, kappa, V domains shown, Human IgG1/kappa, expressed in HEK293F cells; also called humanized 68D4) VH: EVQLVESGGGLVQPGGSLRISCAASGIDLSSYDMTWVRQAPGKGLEWVSIIYTGGLTYYADSVKGRFTISRDNSKNTVYLQMNSLRAEDTAVYYCAREVGDNNNFWGQGTLVTVSS VL: DIVMTQSPSSVSASVGDRVTITCRASESVSSGLAWYQQKPGKAPKLLVYDDTDLASGVPSRFSGSGSGTEFTLTISSLQPDDFATFYCQYTDYGRTYVGTFGGGTKVEIKR
